Source: the Immune Epitope Database (IEDB)

Key:
Experiment in all cases: IEDB peptide-MHC binding, purified MHC/competitive/radioactivity; filed as Kd, often an IC50 or EC50 that approximates it; ≥ and ≤ were set here for values at or beyond the usual limits of such assays
HLA-A*11:01 = biological target: HLA-A*11:01
HLA-A*31:01 = biological target: HLA-A*31:01
HLA-A*03:01 = biological target: HLA-A*03:01
HLA-A*33:01 = biological target: HLA-A*33:01
HLA-A*68:01 = biological target: HLA-A*68:01
[1] = source organism: Dengue virus 4 Philippines/H241/1956
[2] = source organism: Mammarenavirus guanaritoense
[3] = source organism: Vaccinia virus WR
[4] = source organism: Dengue virus 2 Jamaica/1409/1983
[5] = source organism: Dengue virus 3 Martinique/1243/1999
[6] = source organism: SARS coronavirus Tor2
[7] = source organism: Mammarenavirus brazilense
[8] = source organism: Mammarenavirus juninense
[9] = source organism: Lassa virus Josiah
[10] = source organism: Dengue virus 2 Peru/IQT2913/1996
[11] = source organism: Dengue virus 1 Brazil/97-11/1997

Sequence | Kd (HLA-A*31:01; [3]) | Kd (HLA-A*11:01; [3]) | Kd (HLA-A*03:01; [3]) | Kd (HLA-A*33:01; [3]) | Kd (HLA-A*68:01; [3]) | also measured
AANEMGLIEK | – | – | – | – | – | Kd (HLA-A*11:01; [1]): 281 nM
ACNKIKGKK | – | – | – | – | – | Kd (HLA-A*31:01; [2]): 1840 nM; Kd (HLA-A*11:01; [2]): 19000 nM; Kd (HLA-A*03:01; [2]): 1390 nM; Kd (HLA-A*33:01; [2]): 664 nM; Kd (HLA-A*68:01; [2]): 1010 nM
AFNDDGIYIR | 618 nM | 18100 nM | ≥ 70100 nM | 3210 nM | 1690 nM | –
ALRGLPIRY | – | – | – | – | – | Kd (HLA-A*03:01; [4]): 52.8 nM
AMENLKAMLY | ≥ 41900 nM | 222 nM | 144 nM | ≥ 70000 nM | 2790 nM | –
AMLFLISGK | – | – | – | – | – | Kd (HLA-A*11:01; [5]): 211 nM; Kd (HLA-A*03:01; [5]): 185 nM
AMSFDGFIR | 71.8 nM | 327 nM | 9600 nM | 3150 nM | 898 nM | –
AQALNTLVK | – | – | – | – | – | Kd (HLA-A*31:01; [6]): 3640 nM; Kd (HLA-A*11:01; [6]): 15.9 nM; Kd (HLA-A*03:01; [6]): 247 nM; Kd (HLA-A*33:01; [6]): ≥ 28700 nM; Kd (HLA-A*68:01; [6]): 1630 nM
AQYKCVTIK | 666 nM | 37.4 nM | 15.7 nM | 10200 nM | 2180 nM | –
AVIIRGHLR | – | – | – | – | – | Kd (HLA-A*31:01; [6]): 136 nM; Kd (HLA-A*11:01; [6]): 2240 nM; Kd (HLA-A*03:01; [6]): ≥ 33400 nM; Kd (HLA-A*33:01; [6]): ≥ 28200 nM; Kd (HLA-A*68:01; [6]): 2640 nM
CLFDRYFKY | – | – | – | – | – | Kd (HLA-A*31:01; [6]): 215 nM; Kd (HLA-A*11:01; [6]): 0.59 nM; Kd (HLA-A*03:01; [6]): 1.43 nM; Kd (HLA-A*33:01; [6]): 1550 nM; Kd (HLA-A*68:01; [6]): 137 nM
DFKEFASGR | – | – | – | – | – | Kd (HLA-A*33:01; [1]): 2.23 nM
DFTLFIKTGH | – | – | – | – | – | Kd (HLA-A*31:01; [7]): 4540 nM; Kd (HLA-A*11:01; [7]): ≥ 58700 nM; Kd (HLA-A*33:01; [7]): 131 nM; Kd (HLA-A*68:01; [7]): 2480 nM
DLLNVTYNIK | 15200 nM | 302 nM | 367 nM | 1110 nM | 1670 nM | –
DMISYGGGWR | – | – | – | – | – | Kd (HLA-A*33:01; [1]): 506 nM
DSVCACGLFK | – | – | – | – | – | Kd (HLA-A*11:01; source organism: Mammarenavirus whitewaterense): 133 nM
DTVWEVQGYK | – | – | – | – | – | Kd (HLA-A*31:01; [6]): 7500 nM; Kd (HLA-A*11:01; [6]): 74.6 nM; Kd (HLA-A*03:01; [6]): 58.4 nM; Kd (HLA-A*33:01; [6]): 1680 nM; Kd (HLA-A*68:01; [6]): 0.881 nM
EFIRIIRPDY | 13700 nM | ≥ 69800 nM | ≥ 21400 nM | 934 nM | 12200 nM | –
EKYGHLCKYH | – | – | – | – | – | Kd (HLA-A*31:01; [8]): ≥ 70000 nM; Kd (HLA-A*11:01; [8]): ≥ 69700 nM; Kd (HLA-A*03:01; [8]): ≥ 70000 nM; Kd (HLA-A*33:01; [8]): ≥ 70000 nM; Kd (HLA-A*68:01; [8]): ≥ 70100 nM
ELGELIGVNY | ≥ 70000 nM | ≥ 69800 nM | ≥ 70100 nM | ≥ 70000 nM | ≥ 37600 nM | –
EQNLTDTNFK | ≥ 70000 nM | 1250 nM | 17900 nM | ≥ 60600 nM | 681 nM | –
ESLLKETIQK | 13200 nM | 9.74 nM | 26.7 nM | 14800 nM | 332 nM | –

Sequence | Kd (HLA-A*31:01; [3]) | Kd (HLA-A*11:01; [3]) | Kd (HLA-A*03:01; [3]) | Kd (HLA-A*33:01; [3]) | Kd (HLA-A*68:01; [3]) | also measured
EYRLKGESR | – | – | – | – | – | Kd (HLA-A*33:01; [5]): 18.6 nM
FCKSCWFENK | – | – | – | – | – | Kd (HLA-A*31:01; [9]): 2430 nM; Kd (HLA-A*03:01; [9]): ≥ 20000 nM; Kd (HLA-A*33:01; [9]): 9190 nM
FLALGFFLR | – | – | – | – | – | Kd (HLA-A*31:01; [5]): 43 nM; Kd (HLA-A*33:01; [5]): 26.5 nM; Kd (HLA-A*68:01; [5]): 2.14 nM
FNMLKRERNR | – | – | – | – | – | Kd (HLA-A*33:01; [4]): 53.7 nM
FTDPSSVAAR | – | – | – | – | – | Kd (HLA-A*68:01; [1]): 67.7 nM
FTFGDTALY | 14300 nM | 192 nM | 612 nM | ≥ 50000 nM | 2.27 nM | –
GAVVKSDNK | ≥ 77900 nM | 782 nM | 15400 nM | ≥ 77700 nM | 12500 nM | –
GIEFADNDR | 7550 nM | 1740 nM | 2420 nM | 6540 nM | 762 nM | –
GLKIEEIEK | 13200 nM | 6510 nM | 5630 nM | 16300 nM | 16800 nM | –
GTGLWTHDK | 805 nM | 0.361 nM | 24.7 nM | ≥ 65600 nM | 156 nM | –
GVIRSIFAR | – | – | – | – | – | Kd (HLA-A*31:01; [6]): 1.02 nM; Kd (HLA-A*11:01; [6]): 0.618 nM; Kd (HLA-A*03:01; [6]): 1300 nM; Kd (HLA-A*33:01; [6]): 118 nM; Kd (HLA-A*68:01; [6]): 0.519 nM
IFLFLMSGR | – | – | – | – | – | Kd (HLA-A*31:01; [10]): 59.9 nM; Kd (HLA-A*33:01; [10]): 10 nM
IGKMFEATAR | – | – | – | – | – | Kd (HLA-A*33:01; [11]): 637 nM
IIGPMFSGK | 6320 nM | 1.79 nM | 0.73 nM | 7360 nM | 100 nM | –
IITVGMLIY | 1080 nM | 6770 nM | 1520 nM | 1150 nM | 608 nM | –
ILARWSSFKK | – | – | – | – | – | Kd (HLA-A*03:01; [11]): 1.39 nM
ILKRWGTIKK | – | – | – | – | – | Kd (HLA-A*03:01; [4]): 47.4 nM
IMFEQYFIY | 229 nM | ≥ 77900 nM | 3.67 nM | 3260 nM | 205 nM | –
IMNLEMIDER | 1280 nM | 19200 nM | ≥ 70100 nM | 1560 nM | 3610 nM | –
ISGIGTFLHY | ≥ 60500 nM | 364 nM | 355 nM | 13800 nM | 19700 nM | –
ITANPVVTK | – | – | – | – | – | Kd (HLA-A*11:01; [5]): 22.3 nM; Kd (HLA-A*03:01; [5]): 18.1 nM; Kd (HLA-A*68:01; [5]): 47.9 nM
IVMLHTTER | – | – | – | – | – | Kd (HLA-A*31:01; [1]): 2.36 nM; Kd (HLA-A*33:01; [1]): 13.9 nM; Kd (HLA-A*68:01; [1]): 19.7 nM
